Experimental data as given in article PMC9467613 (mAbs, 2022).

B1: A01 (scFv, V domains shown)
VH: EVQLVESGGGVVQPGRSLRLSCAASGFTFSNKAMNWVRQAPGKGLEWVSAISGSGATTYYADSVKGRFTISRDNSKNTLYLQMNSLRAEDTAVYYCARKRWYGMDVWGQGTTVTVSS
VL: SYELTQPPSVSVAPGKTARITCGGNNIGSKSVHWYQQKPGQAPVLVVYDDSDRPSGIPERFSGSNSGNTATLTISRVEAGDEADYYCQVWDRGMIFGTGTKLTVL
B2: A05 (scFv, V domains shown)
VH: EVQLVESGGGVVQPGRSLRLSCAASGFTYSSRAMNWVRQAPGKGLEWVSAISGSGSNAYYADSVKGRFTISRDNSKNTLYLQMNSLRAEDTAVYYCARKRWYGMDVWGQGTTVTVSS
VL: SYELTQPPSVSVAPGKTARITCGGNNIGSKSVHWYQQKPGQAPVLVVYDDSDRPSGIPERFSGSNSGNTATLTISRVEAGDEADYYCQVWDRGMIFGTGTKLTVL
B3: A07 (scFv, V domains shown)
VH: EVQLVESGGGVVQPGRSLRLSCAASGFTFSSRSMNWVRQAPGKGLEWVSAISGSGSTVYYADSVKGRFTISRDNSKNTLYLQMNSLRAEDTAVYYCARKRWYGMDVWGQGTTVTVSS
VL: SYELTQPPSVSVAPGKTARITCGGNNIGSKSVHWYQQKPGQAPVLVVYDDSDRPSGIPERFSGSNSGNTATLTISRVEAGDEADYYCQVWDSRTYVFGTGTKLTVL
B4: A08 (scFv, V domains shown)
VH: EVQLVESGGGVVQPGRSLRLSCAASGFTFGDRAMNWVRQAPGKGLEWVSAISSSGTTSYYADSVKGRFTISRDNSKNTLYLQMNSLRAEDTAVYYCARKRWYGMDVWGQGTTVTVSS
VL: SYELTQPPSVSVAPGKTARITCGGNNIGSKSVHWYQQKPGQAPVLVVYDDSDRPSGIPERFSGSNSGNTATLTISRVEAGDEADYYCQVWDRGMIFGTGTKLTVL
B5: A09 (scFv, V domains shown)
VH: EVQLVESGGGVVQPGRSLRLSCAASGFTFSSRSMNWVRQAPGKGLEWVSAISGSGLTSYYADSVKGRFTISRDNSKNTLYLQMNSLRAEDTAVYYCARKRWYGMDVWGQGTTVTVSS
VL: SYELTQPPSVSVAPGKTARITCGGNNIGSKSVHWYQQKPGQAPVLVVYDDSDRPSGIPERFSGSNSGNTATLTISRVEAGDEADYYCQVWDRGMIFGTGTKLTVL
B6: A10 (scFv, V domains shown)
VH: EVQLVESGGGVVQPGRSLRLSCAASGFTFSSRSMNWVRQAPGKGLEWVSAISGTGYTTYYADSVKGRFTISRDNSKNTLYLQMNSLRAEDTAVYYCARKRWYGMDVWGQGTTVTVSS
VL: SYELTQPPSVSVAPGKTARITCGGNNIGSKSVHWYQQKPGQAPVLVVYDDSDRPSGIPERFSGSNSGNTATLTISRVEAGDEADYYCQVWDRGMIFGTGTKLTVL
B7: A11 (scFv, V domains shown)
VH: EVQLVESGGGVVQPGRSLRLSCAASGFTFSSRSMNWVRQAPGKGLEWVSAISGSGSTVYYADSVKGRFTISRDNSKNTLYLQMNSLRAEDTAVYYCARKRWYGMDVWGQGTTVTVSS
VL: SYELTQPPSVSVAPGKTARITCGGNNIGSKSVHWYQQKPGQAPVLVVYDDSDRPSGIPERFSGSNSGNTATLTISRVEAGDEADYYCQVWDRGMIFGTGTKLTVL
B8: A12 (scFv, V domains shown)
VH: EVQLVESGGGVVQPGRSLRLSCAASGFTFDNRAMNWVRQAPGKGLEWVSAISSSGSTMYYADSVKGRFTISRDNSKNTLYLQMNSLRAEDTAVYYCARKRWYGMDVWGQGTTVTVSS
VL: SYELTQPPSVSVAPGKTARITCGGNNIGSKSVHWYQQKPGQAPVLVVYDDSDRPSGIPERFSGSNSGNTATLTISRVEAGDEADYYCQVWDSRTYVFGTGTKLTVL
B9: B02 (scFv, V domains shown)
VH: EVQLVESGGGVVQPGRSLRLSCAASGFTFSSRSMNWVRQAPGKGLEWVSAISGSGSTVYYADSVKGRFTISRDNSKNTLYLQMNSLRAEDTAVYYCARKRWYGMDVWGQGTTVTVSS
VL: SYELTQPPSVSVAPGKTARITCGGNNIGVKSVHWYQQKPGQAPVLVVYDDSDRSPGIPERFSGSNSGNTATLTISRVEAGDEADYYCQVWDSRTYVFGTGTKLTVL
B10: A02 (scFv, V domains shown)
VH: EVQLVESGGGVVQPGRSLRLSCAASGFTFTSRAMNWVRQAPGKGLEWVSAISYEGRTQYYADSVKGRFTISRDNSKNTLYLQMNSLRAEDTAVYYCARKRWYGMDVWGQGTTVTVSS
VL: SYELTQPPSVSVAPGKTARITCGGNNIGSKSVHWYQQKPGQAPVLVVYDDSDRPSGIPERFSGSNSGNTATLTISRVEAGDEADYYCQVWDRGMIFGTGTKLTVL
B11: B03 (scFv, V domains shown)
VH: EVQLVESGGGVVQPGRSLRLSCAASGFTFGDRAMNWVRQAPGKGLEWVSAISGSGSGTYYADSVKGRFTISRDNSKNTLYLQMNSLRAEDTAVYYCARKRWYGMDVWGQGTTVTVSS
VL: SYELTQPPSVSVAPGKTARITCGGNNIGMKSVHWYQQKPGQAPVLVVYDDSDRPSGIPERFSGSNSGNTATLTISRVEAGDEADYYCQVWDRGMIFGTGTKLTVL
B12: B04 (scFv, V domains shown)
VH: EVQLVESGGGVVQPGRSLRLSCAASGFSFSSRAMNWVRQAPGKGLEWVSAVSGSGSGTYYADSVKGRFTISRDNSKNTLYLQMNSLRAEDTAVYYCARKRWYGMDVWGQGTTVTVSS
VL: SYELTQPPSVSVAPGKTARITCGGNNIGLKSVHWYQQKPGQAPVLVVYDDSDRPSGIPERFSGSNSGNTATLTISRVEAGDEADYYCQVWDRGMIFGTGTKLTVL
B13: B06 (scFv, V domains shown)
VH: EVQLVESGGGVVQPGRSLRLSCAASGFTFSNKAMNWVRQAPGKGLEWVSAISGSGATTYYADSVKGRFTISRDNSKNTLYLQMNSLRAEDTAVYYCARKRWYGMDVWGQGTTVTVSS
VL: SYELTQPPSVSVAPGKTARITCGGNNIGVKAVHWYQQKPGQAPVLVVYDDSDRPSGIPERFSGSNSGNTATLTISRVEAGDEADYYCQVWDRGMIFGTGTKLTVL
B14: B07 (scFv, V domains shown)
VH: EVQLVESGGGVVQPGRSLRLSCAASGFTFGDRAMNWVRQAPGKGLEWVSAISGSGATTYYADSVKGRFTISRDNSKNTLYLQMNSLRAEDTAVYYCARKRWYGMDVWGQGTTVTVSS
VL: SYELTQPPSVSVAPGKTARITCGGNNIGSKSVHWYQQKPGQAPVLVVYDDSDRPSGIPERFSGSNSGNTATLTISRVEAGDEADYYCQVWDRGMIFGTGTKLTVL
B15: B08 (scFv, V domains shown)
VH: EVQLVESGGGVVQPGRSLRLSCAASGFTFSDRAMNWVRQAPGKGLEWVSAISASGASRYYADSVKGRFTISRDNSKNTLYLQMNSLRAEDTAVYYCARKRWYGMDVWGQGTTVTVSS
VL: SYELTQPPSVSVAPGKTARITCGGNNIGSKSVHWYQQKPGQAPVLVVYDDSDRPSGIPERFSGSNSGNTATLTISRVEAGDEADYYCQVWDRGMIFGTGTKLTVL
B16: B09 (scFv, V domains shown)
VH: EVQLVESGGGVVQPGRSLRLSCAASGFTYSSRAMNWVRQAPGKGLEWVSAISSSGTTTYYADSVKGRFTISRDNSKNTLYLQMNSLRAEDTAVYYCARKRWYGMDVWGQGTTVTVSS
VL: SYELTQPPSVSVAPGKTARITCGGNNIGSKSVHWYQQKPGQAPVLVVYDDSDRPSGIPERFSGSNSGNTATLTISRVEAGDEADYYCQVWDRGMIFGTGTKLTVL
B17: B10 (scFv, V domains shown)
VH: EVQLVESGGGVVQPGRSLRLSCAASGFTFSTRAMNWVRQAPGKGLEWVSAISGTGDTTYYADSVKGRFTISRDNSKNTLYLQMNSLRAEDTAVYYCARKRWYGMDVWGQGTTVTVSS
VL: SYELTQPPSVSVAPGKTARITCGGNNIGSKSVHWYQQKPGQAPVLVVYDDSDRPSGIPERFSGSNSGNTATLTISRVEAGDEADYYCQVWGRYQMIFGTGTKLTVL
B18: B11 (scFv, V domains shown)
VH: EVQLVESGGGVVQPGRSLRLSCAASGFTFTSRAMNWVRQAPGKGLEWVSAISGSGATAYYADSVKGRFTISRDNSKNTLYLQMNSLRAEDTAVYYCARKRWYGMDVWGQGTTVTVSS
VL: SYELTQPPSVSVAPGKTARITCGGNNIGSKSVHWYQQKPGQAPVLVVYDDSDRPSGIPERFSGSNSGNTATLTISRVEAGDEADYYCQVWDRGMIFGTGTKLTVL
B19: B12 (scFv, V domains shown)
VH: EVQLVESGGGVVQPGRSLRLSCAASGFTFSDRAMNWVRQAPGKGLEWVSAISGTGASTYYADSVKGRFTISRDNSKNTLYLQMNSLRAEDTAVYYCARKRWYGMDVWGQGTTVTVSS
VL: SYELTQPPSVSVAPGKTARITCGGNNIGSKSVHWYQQKPGQAPVLVVYDDSDRPSGIPERFSGSNSGNTATLTISRVEAGDEADYYCQVWDRGMIFGTGTKLTVL
B20: A04 (scFv, V domains shown)
VH: EVQLVESGGGVVQPGRSLRLSCAASGFTFSSRSMNWVRQAPGKGLEWVSAISGSGDTTYYADSVKGRFTISRDNSKNTLYLQMNSLRAEDTAVYYCARKRWYGMDVWGQGTTVTVSS
VL: SYELTQPPSVSVAPGKTARITCGGNNIGSKSVHWYQQKPGQAPVLVVYDDSDRPSGIPERFSGSNSGNTATLTISRVEAGDEADYYCQVWDRGMIFGTGTKLTVL

Molecular target: B7-H4 purified monomeric recombinant human protein (Homo sapiens, UniProt Q7Z7D3)
Experiment: SPR

B7-H4 purified monomeric recombinant human protein, sequence (Q7Z7D3 25-259): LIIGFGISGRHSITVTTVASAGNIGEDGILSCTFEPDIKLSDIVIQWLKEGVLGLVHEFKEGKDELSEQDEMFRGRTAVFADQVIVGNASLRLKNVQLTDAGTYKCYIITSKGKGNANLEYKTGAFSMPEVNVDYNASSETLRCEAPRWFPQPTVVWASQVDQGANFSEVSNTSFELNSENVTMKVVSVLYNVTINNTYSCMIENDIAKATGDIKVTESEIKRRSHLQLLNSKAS

Binder | Kd [nM] | koff [s⁻¹] | kon [M⁻¹ s⁻¹]
B1 | 0.224 | 3.7e-05 | 170000
B2 | 0.117 | 2.2e-05 | 190000
B3 | 0.277 | 4.7e-05 | 170000
B4 | 0.043 | 1.3e-05 | 310000
B5 | 0.074 | 1.1e-05 | 160000
B6 | 0.103 | 1.4e-05 | 140000
B7 | 0.06 | 1.1e-05 | 190000
B8 | 0.139 | 3.2e-05 | 230000
B9 | 0.059 | 1.1e-05 | 180000
B10 | 0.039 | 1.1e-05 | 280000
B11 | 0.07 | 2.1e-05 | 300000
B12 | 0.172 | 2.7e-05 | 160000
B13 | 0.097 | 1.7e-05 | 170000
B14 | 0.054 | 1.8e-05 | 330000
B15 | 0.117 | 1.8e-05 | 150000
B16 | 0.118 | 2.5e-05 | 210000
B17 | 0.116 | 2.9e-05 | 260000
B18 | 0.068 | 1.2e-05 | 180000
B19 | 0.084 | 2.8e-05 | 340000
B20 | 0.069 | 2.1e-05 | 310000
